Paper PMC4658703 (Science (New York, N.Y.), 2012)
Where two headings read alike, the source gives them in different places.

How the values were obtained:
[1] = target: T1, Human IGF2R domain 11 (wild type) (human, UniProt P11717 1508-1650); assay: SPR
[2] = target: T1, Human IGF2R domain 11 (wild type); assay: SPR; remark: listed apart in the source

T1 sequence (P11717 1508-1650): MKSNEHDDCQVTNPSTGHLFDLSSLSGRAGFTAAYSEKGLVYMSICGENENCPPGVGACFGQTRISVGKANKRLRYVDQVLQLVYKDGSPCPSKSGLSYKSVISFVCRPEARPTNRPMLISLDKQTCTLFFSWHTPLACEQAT

Kd [1]: 63 nM | Kd [2]: 46 nM
B1: Chicken IGF2 (ligand, UniProt P33717 24-91, looked up)
chain: AYGTAETLCGGELVDTLQFVCGDRGFYFSRPVGRNNRRINRGIVEECCFRSCDLALLETYCAKSVKSE
modifications: ends and bridges not checked; also: biotin, site not given here
